For this assay, the system named is Oxidatively competent cells. In words: Antimycin A-induced cell death in oxidatively competent cells, SYTOX assay after 4 hours. Type of assay: cell-based, rat-human hybrid (GCL1). The settings on record: lactoferrin alone at 100 μg/ml. An excerpt:
The GCL1 (WiF-B) liver cell line is a hybrid originating from the fusion of rat hepatoma cells (fao) and human fibroblasts (W138). Cassio et al. (1991) J. Cell Biol. 115:1397-1408; Shanks et al. (1994) J. Cell Science 107:813-825. […] Ihrke et al. 1993, J. Cell Biol. 123:1761-1775. At greater than 80% confluence, more than 80% of the cells participate in forming one or more phaselucent, spherical structures that are located between cells, termed bile canicular-like spaces. In contrast to the majority of cell lines maintained in culture which are fermentative, GCL1 cells, when at their maximal density and polarity, are highly oxidative (i.e., they can be readily killed by inhibitors of oxidative phosphorylation or electron transport uncouplers). […] These cells are amenable to use in high throughput screening (HTS) technology.
Energetically competent cells are seeded onto 96-well plates at 1×10^3/well or 2.5×10^3/well as passage 15. The cells are grown in DMEM with 10% FBS and 1.5 g/L sodium bicarbonate for 24 or 48 hours to reach 85% confluence. The cells are washed once with HBSS and then 100 μl of HBSS containing different concentration of AA (Sigma Chemical Co., Cat # A 8674) is added to the cells. AA is dissolved in DMSO to make a stock solution of 50 mM, then diluted with HBSS to 100, 50, 25, 12.5, 6.25, 3.125, and 1.56 μM for dose-response curves. […]

B1: lactoferrin: Bovine lactoferrin, iron-binding glycoprotein of milk (Sigma cat. # L9507 or DMV International Nutritionals) (protein, UniProt P24627 20-708, looked up)
Lactotransferrin: APRKNVRWCTISQPEWFKCRRWQWRMKKLGAPSITCVRRAFALECIRAIAEKKADAVTLDGGMVFEAGRDPYKLRPVAAEIYGTKESPQTHYYAVAVVKKGSNFQLDQLQGRKSCHTGLGRSAGWIIPMGILRPYLSWTESLEPLQGAVAKFFSASCVPCIDRQAYPNLCQLCKGEGENQCACSSREPYFGYSGAFKCLQDGAGDVAFVKETTVFENLPEKADRDQYELLCLNNSRAPVDAFKECHLAQVPSHAVVARSVDGKEDLIWKLLSKAQEKFGKNKSRSFQLFGSPPGQRDLLFKDSALGFLRIPSKVDSALYLGSRYLTTLKNLRETAEEVKARYTRVVWCAVGPEEQKKCQQWSQQSGQNVTCATASTTDDCIVLVLKGEADALNLDGGYIYTAGKCGLVPVLAENRKSSKHSSLDCVLRPTEGYLAVAVVKKANEGLTWNSLKDKKSCHTAVDRTAGWNIPMGLIVNQTGSCAFDEFFSQSCAPGADPKSRLCALCAGDDQGLDKCVPNSKEKYYGYTGAFRCLAEDVGDVAFVKNDTVWENTNGESTADWAKNLNREDFRLLCLDGTRKPVTEAQSCHLAVAPNHAVVSRSDRAAHVKQVLLHQQALFGKNGKNCPDKFCLFKSETKNLLFNDNTECLAKLGGRPTYEEYLGTEYVTAIANLKKCSTSPLLEACAFLTR
On to B1, for which the cell death is reported as 85.9% (Example 8, experiment with (+/−)-alpha tocopherol) and 96% (Example 8, experiment with alpha-tocopherol Type V).

Source of the values: patent publication US6426362B1, “Formulations of tocopherols and methods of making and using them” (Galileo Laboratories, Inc., priority 1999, dated 2002).
